In article PMC6056538:

How the values were obtained:
[1] = molecular target: T1 with SpyTag, flanked by six residue glycine-serine linkers, inserted on the lumenal side (Haliangium ochraceum | not stated); experiment: fluorescence intensity of purified shells; number of cfp cargo proteins per shell calculated from fluorescence intensity values of shells loaded in vivo and purified by CAP and anion exchange
[2] = molecular target: T1 with SpyCatcher, flanked by six residue glycine-serine linkers, inserted on the lumenal side (Haliangium ochraceum | not stated); experiment: as above

Substance | cfp cargo copies per shell (copies per shell) [1] | cfp cargo copies per shell (copies per shell) [2]
SpyCatcher-mTurquoise2-6xHis (SpyCatcher-fused cyan fluorescent protein cargo) | 58 | 
SpyTag-mTurquoise2-6xHis (SpyTagged cyan fluorescent protein cargo) |  | 73
